Reference: patent publication US6685945

Experiments:
[1] = test system: OmpL1-PhoA fusion protein [phosphatase: P00634]
[2] = molecular target: OmpL1, 31 kD outer membrane protein of Leptospira alstoni (native protein) (Leptospira alstoni serovar grippotyphosa); assay: immunoelectron microscopy of intact L. alstoni, protein G-colloidal gold (control serum)

OmpL1-PhoA fusion protein [phosphatase: P00634], sequence (P00634 27-471): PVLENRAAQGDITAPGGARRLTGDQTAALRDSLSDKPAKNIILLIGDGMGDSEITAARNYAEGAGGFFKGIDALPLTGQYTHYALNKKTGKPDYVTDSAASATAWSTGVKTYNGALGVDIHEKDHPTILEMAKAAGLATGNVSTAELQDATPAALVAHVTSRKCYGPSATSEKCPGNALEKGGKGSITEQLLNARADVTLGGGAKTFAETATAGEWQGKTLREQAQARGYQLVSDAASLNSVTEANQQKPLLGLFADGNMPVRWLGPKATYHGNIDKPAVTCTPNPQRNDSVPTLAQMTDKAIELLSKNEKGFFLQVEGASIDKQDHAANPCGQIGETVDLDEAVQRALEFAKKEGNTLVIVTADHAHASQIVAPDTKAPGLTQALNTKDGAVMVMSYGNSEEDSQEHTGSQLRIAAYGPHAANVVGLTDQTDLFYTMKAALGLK

Substance: E. coli leader peptidase 1 (strain IT41, temperature sensitive mutation)
- cleavage of the OmpL1-PhoA fusion protein in E. coli IT41 [1]: Cleavage of the OmpL1-PhoA fusion protein was demonstrated at the permissive temperature of 32° C., but not at the restrictive temperature of 37 °C

Substance: preimmune serum from the same rabbit as the anti-OmpL1 antiserum (antibody)
- gold particles per twenty organisms (particles per twenty organisms) [2]: 1
